B1: TCN-549 (5092_P04) (antibody, V domains shown)
VH: QVQLVQSGAEVKKPGASVKVSCKASGYTFTGYYMHWVRQAPGQGLEWMGWINPNSGDTNYAQKFQGRVTMTRDTSITTAYMELSSLRSDDTAVYYCARDSPYSSSWSFFDYWGQGPLVTVSS
VL: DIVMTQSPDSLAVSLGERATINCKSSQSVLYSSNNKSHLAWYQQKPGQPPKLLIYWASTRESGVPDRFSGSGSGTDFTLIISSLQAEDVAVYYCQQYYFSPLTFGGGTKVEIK
B2: TCN-550 (5096_F06) (antibody, V domains shown)
VH: QVQLQESGPGLVKPSETLSLTCTVSGASINSHYWSWIRQPPGKGLEWIGYVYYSGSTTYNPSLKSRVTLSVDTSKNQFSLNLSSVTAADTAFYYCARHPYDVLTGSGDWFDPWGQGTLVTVSS
VL: SYVLTQAPSVSVAPGQTARITCGGNAIGSKKVHWYQHKAGQAPVLVVYDDTDRPSGIPERFSGSNSWSTATLTINRVEAGDEADYYCQVWDFTIDHVVFGGGTKLTVL
B3: TCN-551 (5243_D01) (antibody, V domains shown)
VH: EVQLVQSGSEVKKPGESLKISCKGSGYSFSNYWIGWVRHMPGKGLEWMGIIYPGDSDTRYSPSFQGQVTMSADKSSSTVYLQWSSLKASDTAIYYCARRGGHSFGYGSGGDTHSEFDSWGQGTLVTVSS
VL: QSVLTQSPSVSAAPGQKVTISCSGSDSNIGDYFVCWYQHLPGKPPQLLIYENNKRPSGIPDRFSGSKSGTSATLGITGIQTGDEADYYCATWDGSLSAWVFGGGTKLTVL
B4: TCN-552 (5249_I23) (antibody, V domains shown)
VH: QVQVVQSGAEVKKPGSSVRVSCQASGGTFMNYAIIWVRRAPGQGLEWMGGIIPVFPTPNYAQMFQGRVTISTDESRSTSFLELTNLRYEDTAVYYCARRIYHGGNSGFDFWGQGTLVTVSS
VL: EIVLTQSPATLSLSPGERATLSCRASQSVGNYLAWYQQKPGQAPRLLIYDSSNRAPGIPARFSGSGSGTDFTLTISSLAPEDFAVYYCQQRSKWPPMYSFGHGTKLEIK
B5: TCN-553 (5261_C18) (antibody, V domains shown)
VH: QVQVVQSGTEVKKPGSSVKVSCQTSGGRFMSYAITWVRQAPGQGLEWMGGIVPVFGTANYAQKFQGRVTITTDDSTRTAYMELSSLRSEDTAVYYCGFRYGSGYGFDSWGQGTLVTVSS
VL: EIVLTQSPGTLSLSPGERATLSCRASQSVSSSYLAWYQKKPGQAPRLLIYGASTRATGIPDRFTGSGSGTDFTLSISRLEPEDFAVYYCQHFGTSVFTFGGGTKVEIK
B6: TCN-555 (5246_L16) (antibody, V domains shown)
VH: QVQLVQSGAEVKRPGSSVKVSCTASGGIFRKNAISWVRQAPGQGLEWMGGIIAVFNTANYAQKFQNRVKITADESGNTAYMELSSLTSDDTAVYYCASHPKYFYGSGSYPDFWGQGTLVTVSS
VL: QSALTQPRSVSGSPGQSITISCTGGSSDIGASNSVSWYQQHPGKAPKLVIFDVTERPSGVPHRFSGSKSGNTASLTVSGLQPDDEADYFCCAYGGKYLVVFGGGTKVTVL
B7: TCN-556 (5089_K12) (antibody, V domains shown)
VH: QVQLVQSGAEVKKPGASVKVSCKASGYTFIGYDMHWVRQAPGQGLEWMGWINAKRGGTNYAQKFQGRVTMTRDTSISTAYMELNSLRSDDTAVYYCARGVGSRTTIFGVLNPEFDYWGQGTLVTVSS
VL: QSALTQPPSASGSPGQSVTISCTGSSSDVGGYDYVSWYQQHPGKAPKLLIYEVTKRPSGVPDRFSGSKSGNTASLTVSGLQAEDEADYYCSSYAGNYNHVFGPGTKVTVL
B8: TCN-557 (5081_A04) (antibody, V domains shown)
VH: QVQLVQSGAEVKKPGASVKVSCKASGHTFTGYYIHWVRQAPGQGLEWMGWINPDSGATSSAQNFQGRVTMTGDTSSSTAYMELSRLSFDDTAVYYCARVLFTSPFDFWGEGTLVTVSS
VL: QAVVTQEPSLAVSPGGTVTLTCGSSTGAVTRGHYPYWFQQKPGQAPRALIYDSAGNRHSWTPARFSGSLLGGKAALTLSGAQPEDEAEYYCLLSYSGVWVFGGGTKLTVL
B9: TCN-560 (5084_P10) (antibody, V domains shown)
VH: EVQLVESGGGLVQPGGSLRLSCAASGFIFRNYWMSWVRQAPGKGLEWVANIKQDGREKYYVDSLRGRVNISRDNAENSLYLHMNSLRVEDTAVYFCARARMVVVTGDGFDVWGHGTMVTVSS
VL: DIQMTQSPSSLSASVGDRVTITCRASQNIKRYFNWYQQKPGKAPKLLIYAASNLENGVPSRFSGSGSGTDFTLTISSLQPEDFATYYCQQSFSKSWTFGQGTNVDIK

What follows are binders tested against Hemagglutinin of influenza A/Solomon Islands/3/06 (H1N1), on inactivated whole virions (Influenza A virus A/Solomon …) (assay: ELISA, B cell culture supernatant on inactivated whole virions).
B1 gave an OD450 of 0.09 OD450. In the case of B2, the OD450 is reported as 0.06 OD450. B3 gave an OD450 of 3.35 OD450. Work on B4 yielded an OD450 of 3.57 OD450. For B5, the OD450 was 3.6 OD450. For B6, the OD450 was 2.89 OD450. B7 gave an OD450 of 2.7 OD450. Work on B8 yielded an OD450 of 2.32 OD450. B9 showed an OD450 of 3.63 OD450.
